Data published in paper PMC9847341 (Antibody Therapeutics, 2022).

What was measured:
[1] = biological target: mouse chitinase 3-like-1 (mChi3l1) with C-terminal Avitag and His tag (Mus musculus, UniProt Q61362); test: BLI
[2] = biological target: human chitinase 3-like-1 (hChi3l1) with C-terminal Avitag and His tag (Homo sapiens, UniProt P36222); test: BLI
human chitinase 3-like-1 (hChi3l1) with C-terminal Avitag and His tag, sequence (P36222 22-383): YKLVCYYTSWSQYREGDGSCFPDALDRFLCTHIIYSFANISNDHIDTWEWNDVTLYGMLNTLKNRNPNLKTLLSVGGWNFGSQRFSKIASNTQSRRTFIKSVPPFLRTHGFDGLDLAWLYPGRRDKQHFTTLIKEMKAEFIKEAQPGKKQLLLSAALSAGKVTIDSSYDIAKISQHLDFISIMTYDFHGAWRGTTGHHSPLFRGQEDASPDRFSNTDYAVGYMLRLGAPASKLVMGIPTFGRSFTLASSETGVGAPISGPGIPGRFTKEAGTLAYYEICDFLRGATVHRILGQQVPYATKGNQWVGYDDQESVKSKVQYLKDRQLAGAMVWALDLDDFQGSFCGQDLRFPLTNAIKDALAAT

mouse chitinase 3-like-1 (mChi3l1) with C-terminal Avitag and His tag, sequence (Q61362 30-389): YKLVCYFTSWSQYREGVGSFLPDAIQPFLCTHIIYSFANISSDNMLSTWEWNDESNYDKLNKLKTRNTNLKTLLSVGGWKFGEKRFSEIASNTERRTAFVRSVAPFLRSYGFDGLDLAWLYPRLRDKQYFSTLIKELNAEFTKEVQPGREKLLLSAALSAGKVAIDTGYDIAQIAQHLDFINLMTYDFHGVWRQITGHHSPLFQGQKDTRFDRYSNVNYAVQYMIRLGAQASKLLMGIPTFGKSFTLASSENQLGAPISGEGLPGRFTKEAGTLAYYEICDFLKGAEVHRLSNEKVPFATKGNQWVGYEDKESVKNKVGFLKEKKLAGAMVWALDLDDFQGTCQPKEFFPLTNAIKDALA

Kd [1]: 7 nM
Kd [2]: 9 nM
B1: humanized C59, second version (hC59): hC59-1 with the S67F reverse mutation in the kappa chain FR3 (antibody, V domains shown)
VH: EVQLVESGGGLVQPGGSLRLSCAASGFTISSDYYMCWVRQAPGKGLEWIGCIYIGSGTDTYYASWAKGRFTISRHNSKNTLYLQMNSLRAEDTAVYYCARDKGWSNAWGFYFQLWGQGTLVTVSS
VL: DIQMTQSPSSLSASVGDRVTITCQASQSIGKYLNWYQQKPGKAPKLLIYSSSSLASGVPSRFSGSGFGTDFTLTISSLQPEDFATYYCQQGYSYVDLENGFGGGTKVEI
